Test results from patent US4286063A, “Method for producing thrombolytic preparation” (The Green Cross Corporation, priority 1978, dated 1981).

Experiments:
[1] = test system: urokinase; experiment: Effect of heat stabilizers on residual urokinase activity after heat treatment; format: physicochemical; conditions: for residual urokinase activity in the presence of heat stabilizer: after heat treatment, concentrations of Table 2
[2] = test system: urokinase; experiment: Residual urokinase activity and molecular weight distribution after dialysis against outer liquids of different pH; format: physicochemical, human urine; conditions: 40 hours at 4° C.
Description: The interrelationship between pH and the ratio of residual urokinase activity as well as the molecular weight distribution:
The resulting solution was dialyzed for 40 hours at 4° C. against an outer liquid of water, a 1 M sodium acetate buffer solution of pH 3.0, 4.0, 5.0, 6.0, 7.0, 8.0, 9.0, 11.0 or 12.0 or a 1/15 M phosphate buffer solution, while renewing the outer liquid at a time interval of 8 hours. After completion of the dialysis, the ratio of residual activity was assayed and molecular weight distribution was roughly evaluated by the molecular sieving by means of gel filtration technique.

[3] = test system: urokinase; experiment: Stability of urokinase in heat treatment (60° C., 10 hours), dependence on pH; format: physicochemical
Description: Dependence of the stability of urokinase in heat treatment on pH:
A phosphate buffer solution was added in various concentrations to an aqueous urokinase solution [specific activity, 15,000 IU/mg; protein concentration, 0.02% (W/V)] to prepare samples of urokinase solutions having pH of 4, 5, 6, 7, 8, 9 and 10. Each sample was heated at 60° C. for 10 hours and the residual activity was compared. After the heat treatment, the heat stabilizer was removed by dialysis and the urokinase activity was assayed to calculate the ratio of residual activity by taking the specific activity before heating as 100%.

[4] = heat stabilizer concentration 5%
[5] = heat stabilizer concentration 10%
[6] = heat stabilizer concentration 15%
[7] = heat stabilizer concentration 0.1 M

Question: `[Cl-].[Na+]` [Sodium chloride, sodium chloride] was tested. Which “residual urokinase activity in the presence of heat stabilizer” value [1] did it give?
Answer: The value was 71-75%.

Question: What about the “Ratio of residual urokinase activity” value ([1]; heat stabilizer concentration 0.15 M) of the same compound?
Answer: The value was 71%.

Question: And the “Ratio of residual urokinase activity” value ([1]; heat stabilizer concentration 0.3 M)?
Answer: The value was 75%.

Question: `NCC(=O)O` [Glycine, glycine] was tested. Which “residual urokinase activity in the presence of heat stabilizer” value [1] did it give?
Answer: Its value is 65-75%.

Question: And the “Ratio of residual urokinase activity” value [1, 4]?
Answer: Its value is 65%.

Question: What about the “Ratio of residual urokinase activity” value [1, 5] of the same compound?
Answer: Its value is 70%.

Question: And the “Ratio of residual urokinase activity” value [1, 6]?
Answer: Its value is 75%.

Question: Which “residual urokinase activity in the presence of heat stabilizer” value [1] does the source give for `OC[C@@H](O)[C@@H](O)[C@H](O)[C@H](O)CO` [Mannit, mannitol] here?
Answer: The value was 78%.

Question: What about the “Ratio of residual urokinase activity” value [1, 4] of the same compound?
Answer: Its value is 73%.

Question: What about the “Ratio of residual urokinase activity” value [1, 5] of the same compound?
Answer: Its value is 73%.

Question: What does the source list for `N=C(N)NCCC[C@H](N)C(=O)O` [Arginine, arginine]?
Answer: residual urokinase activity in the presence of heat stabilizer [1]: 79%; Ratio of residual urokinase activity [1, 7]: 79%

Question: For urokinase, which Activity after dialysis ([2]; Run 1, pH of outer liquid 3) is on record?
Answer: The Activity after dialysis was 6,324 IU.

Question: What about the “Ratio of residual activity” value ([2]; Run 1, pH of outer liquid 3) of the same compound?
Answer: The value was 65.

Question: What about the Activity after dialysis ([2]; Run 2, pH of outer liquid 4) of the same compound?
Answer: The Activity after dialysis was 6,314 IU.

Question: What about the “Ratio of residual activity” value ([2]; Run 2, pH of outer liquid 4) of the same compound?
Answer: Its value is 64.

Question: What about the Activity after dialysis ([2]; Run 3, pH of outer liquid 5) of the same compound?
Answer: The Activity after dialysis was 6,426 IU.

Question: What about the “Ratio of residual activity” value ([2]; Run 3, pH of outer liquid 5) of the same compound?
Answer: The value was 66.

Question: What about the Activity after dialysis ([2]; Run 4, pH of outer liquid 6) of the same compound?
Answer: The Activity after dialysis was 7,252 IU.

Question: What about the “Ratio of residual activity” value ([2]; Run 4, pH of outer liquid 6) of the same compound?
Answer: The value was 74.

Question: What about the Activity after dialysis ([2]; Run 5, pH of outer liquid 7) of the same compound?
Answer: Its Activity after dialysis is 8,296 IU.

Question: What about the “Ratio of residual activity” value ([2]; Run 5, pH of outer liquid 7) of the same compound?
Answer: Its value is 85.

Question: What about the Activity after dialysis ([2]; Run 6, pH of outer liquid 8) of the same compound?
Answer: Its Activity after dialysis is 10,290 IU.

Question: And the “Ratio of residual activity” value ([2]; Run 6, pH of outer liquid 8)?
Answer: Its value is 105.

Question: And the Activity after dialysis ([2]; Run 7, pH of outer liquid 9)?
Answer: The Activity after dialysis was 9,672 IU.

Question: And the “Ratio of residual activity” value ([2]; Run 7, pH of outer liquid 9)?
Answer: Its value is 99.

Question: And the Activity after dialysis ([2]; Run 8, pH of outer liquid 11)?
Answer: The Activity after dialysis was 9,016 IU.

Question: And the “Ratio of residual activity” value ([2]; Run 8, pH of outer liquid 11)?
Answer: The value was 92.

Question: What about the Activity after dialysis ([2]; Run 9, pH of outer liquid 12) of the same compound?
Answer: The Activity after dialysis was 8,722 IU.

Question: What about the “Ratio of residual activity” value ([2]; Run 9, pH of outer liquid 12) of the same compound?
Answer: The value was 89.

Question: And the Activity after dialysis ([2]; outer liquid H2O)?
Answer: The Activity after dialysis was 8,514 IU.

Question: What about the “Ratio of residual activity” value ([2]; outer liquid H2O) of the same compound?
Answer: The value was 86.

Question: What about the “ratio of residual activity after heat treatment” value ([3]; pH 7, phosphate buffer) of the same compound?
Answer: The value was 52%.

Question: And the “ratio of residual activity after heat treatment” value ([3]; pH 8, phosphate buffer)?
Answer: Its value is 65%.

Question: What about the “ratio of residual activity after heat treatment” value ([3]; pH 9, phosphate buffer) of the same compound?
Answer: Its value is 50%.

Question: What about the “Ratio of residual urokinase activity” value ([1]; heat stabilizer absent, pH 6.8 with 0.1 M phosphate buffer) of the same compound?
Answer: Its value is 65%.

Question: And the “Ratio of residual urokinase activity” value ([1]; no phosphate buffer, pH not adjusted)?
Answer: The value was 0%.

Question: `NCCCC[C@H](N)C(=O)O` [Lysine, lysine] was tested. Which “residual urokinase activity in the presence of heat stabilizer” value [1] did it give?
Answer: The value was 78%.

Question: And the “Ratio of residual urokinase activity” value [1, 7]?
Answer: The value was 78%.

Question: Which results are given for `OC[C@H]1O[C@@](CO)(O[C@H]2O[C@H](CO)[C@@H](O)[C@H](O)[C@H]2O)[C@@H](O)[C@@H]1O` [Sucrose, sucrose]?
Answer: residual urokinase activity in the presence of heat stabilizer [1]: 75-78%; Ratio of residual urokinase activity [1, 4]: 75%; Ratio of residual urokinase activity [1, 5]: 77%; Ratio of residual urokinase activity [1, 6]: 78%

Question: How did the “residual urokinase activity in the presence of heat stabilizer” value [1] turn out when Gelatin was run?
Answer: Its value is 88-100%.

Question: And the “Ratio of residual urokinase activity” value ([1]; heat stabilizer concentration 0.5%)?
Answer: The value was 88%.

Question: What about the “Ratio of residual urokinase activity” value ([1]; heat stabilizer concentration 1.0%) of the same compound?
Answer: Its value is 91%.

Question: And the “Ratio of residual urokinase activity” value ([1]; heat stabilizer concentration 3.0%)?
Answer: The value was 89%.

Question: For `O=C(O)CN(CCN(CC(=O)O)CC(=O)O)CC(=O)O` [EDTA], which “Ratio of residual urokinase activity” value ([1]; heat stabilizer concentration 0.1%) is on record?
Answer: The value was 23%.
